{"source": "paper PMC9173642", "about": "(PLoS ONE, 2022)", "binders": {"B1": {"name": "stargazin (Stg) peptide (peptide)", "peptide": "Ac-RIPSYRYR-NH2", "notes": "peptide from the cytosolic tail of stargazin (Stg), auxiliary subunit of AMPA receptors"}, "B2": {"name": "NbArc-D4 (VHH)", "VHH": "EVQLVESGGGLVQAGGSLRLSCVASRGPFTTVTMGWYRQTPGRGRELVATINGGGGTRYADSVKGRFTISTDNAKNTVSLQMNSLKPEDTAVYYCNNDGYEWGVKKTYWGQGTQVTVSS", "notes": "From NanoTag Technologies, His6-TEV-Nb in pNT1433; also called sdAb D4; source: E. coli BL21(DE3), purified (NiNTA, TEV proteolysis, SEC); not shown: His6, N-terminal, cleaved"}, "B3": {"name": "MBP-2rNT, N-terminal domain of rat Arc (residues 24-137) with the poly-Ala mutation, fused to His6-MBP (domain or fragment, UniProt Q63053 24-137, looked up)", "chain": "KPNVILQIGKCRAEMLEHVRRTHRHLLTEVSKQVERELKGLHRSVGKLENNLDGYVPTGDSQRWKKSIKACLCRCQETIANLERWVKREAAAAAAAFYRLERWADRLESMGGKY", "notes": "Insoluble without the MBP fusion partner; dimer by SAXS; also called NTD; rArc-NTD; source: E. coli BL21(DE3)-RIPL, purified (details in S1 Protocol); not shown: His6, N-terminal, kept; MBP, N-terminal, kept"}, "B4": {"name": "NbArc-H11 (VHH)", "VHH": "EVQLLESGGGLVQAGDSLRLSCAASGRTFSAYAMGWFRQAPGKEREFVAAISWSGNSTYYADSVKGRFTISRDNAKNTVYLQMNSLKPEDTAIYYCAARKPMYRVDISKGQNYDYWGQGTQVTVSS", "notes": "From NanoTag Technologies, His6-TEV-Nb in pNT1433; long CDR3 with a P-x-Y motif (Pro103, Tyr105); also called Nb H11; sdAb H11; source: E. coli BL21(DE3), purified (NiNTA, TEV proteolysis, SEC); not shown: His6, N-terminal, cleaved"}, "B5": {"name": "E5 [NbArc-E5] (VHH)", "VHH": "EVQLQESGGGLVQAGGSLRLSCAASGSIFSGNAMGWYRQAPGKQREVVAVISAGNSSNYVDSVKGRFTISRDNAKNTVYLQMNSLKPEDTAVYYCNVVKRGPQWGMEWGKGTLVTVSS"}, "B6": {"name": "NbArc-E5 (VHH)", "VHH": "B5 VHH", "notes": "From NanoTag Technologies, His6-TEV-Nb in pNT1433; also called Nb E5; sdAb E5; source: E. coli BL21(DE3), purified (NiNTA, TEV proteolysis, SEC); not shown: His6, N-terminal, cleaved"}, "B7": {"name": "FLrArc-7A, full-length rat Arc with residues 113-119 mutated to Ala (natural protein, UniProt Q63053 1-396, looked up)", "chain": "MELDHMTTGGLHAYPAPRGGPAAKPNVILQIGKCRAEMLEHVRRTHRHLLTEVSKQVERELKGLHRSVGKLENNLDGYVPTGDSQRWKKSIKACLCRCQETIANLERWVKREAAAAAAAFYRLERWADRLESMGGKYPVGSEPARHTVSVGVGGPEPYCQEADGYDYTVSPYAITPPPAAGELPEQESVGAQQYQSWVPGEDGQPSPGVDTQIFEDPREFLSHLEEYLRQVGGSEEYWLSQIQNHMNGPAKKWWEFKQGSVKNWVEFKKEFLQYSEGTLSREAIQRELDLPQKQGEPLDQFLWRKRDLYQTLYVDAEEEEIIQYVVGTLQPKFKRFLRHPLPKTLEQLIQRGMEVQDGLEQAAEPSVTPLPTEDETEALTPALTSESVASDRTQPE", "notes": "Expressed from pHMGWA as His6-MBP fusion; Dimer by SAXS; also called poly-Ala rArc mutant; FLArc-7A; source: E. coli BL21(DE3)-RIPL, purified (details in S1 Protocol)"}, "B8": {"name": "NbArc-B12 (VHH)", "VHH": "EVQLLESGGGLVQAGGSLRLSCVASRGPFTTVTMGWYRQTPGKQRESVAHITSDGRANYADSVKGRFTISKDNATNTVYLQMNNLKREDTAVYYCNTIVWPRGPWGQGTQVTVSS", "notes": "From NanoTag Technologies, His6-TEV-Nb in pNT1433; also called sdAb B12; source: E. coli BL21(DE3), purified (NiNTA, TEV proteolysis, SEC); not shown: His6, N-terminal, cleaved"}, "B9": {"name": "NbArc-B5 (VHH)", "VHH": "EVQLQESGGGLVEAGGSLRLSCAASGHTSSTVNMAWYRQAPGKEREWVARVFWTDGATYYSDSVKGRFTISRDNTKQRVNLQMNNLKPEDTAIYYCALRAPSSQRLYWGQGTQVTVSS", "notes": "From NanoTag Technologies, His6-TEV-Nb in pNT1433; also called sdAb B5; source: E. coli BL21(DE3), purified (NiNTA, TEV proteolysis, SEC); not shown: His6, N-terminal, cleaved"}, "B10": {"name": "full-length human Arc (FLhArc), capsid-containing preparation (natural protein, UniProt Q7LC44 1-396, looked up)", "chain": "MELDHRTSGGLHAYPGPRGGQVAKPNVILQIGKCRAEMLEHVRRTHRHLLAEVSKQVERELKGLHRSVGKLESNLDGYVPTSDSQRWKKSIKACLCRCQETIANLERWVKREMHVWREVFYRLERWADRLESTGGKYPVGSESARHTVSVGVGGPESYCHEADGYDYTVSPYAITPPPAAGELPGQEPAEAQQYQPWVPGEDGQPSPGVDTQIFEDPREFLSHLEEYLRQVGGSEEYWLSQIQNHMNGPAKKWWEFKQGSVKNWVEFKKEFLQYSEGTLSREAIQRELDLPQKQGEPLDQFLWRKRDLYQTLYVDADEEEIIQYVVGTLQPKLKRFLRHPLPKTLEQLIQRGMEVQDDLEQAAEPAGPHLPVEDEAETLTPAPNSESVASDRTQPE", "notes": "Activity-regulated cytoskeleton-associated protein (Arc), human, full length, without any mutations; High-molecular-weight forms and capsids with nucleic acid content (260/280 ratio >1); also called capsid hArc; wild-type full length hArc; source: E. coli BL21 CodonPlus, purified (NiNTA, TEV cleavage, Talon)"}, "B11": {"name": "C11 [NbArc-C11] (VHH)", "VHH": "EVQLVESGGGLVQAGGSLRLSCAASGRTSGALNVAWYRQATGKEREYVARLWWNDGTTYYSDSVKGRFTISSDNAKKIVYLQMNRLKPDDTAIYYCAVRTPSSQTLYWGQGTQVTVSS"}, "B12": {"name": "NbArc-C11 (VHH)", "VHH": "B11 VHH", "notes": "From NanoTag Technologies, His6-TEV-Nb in pNT1433; also called Nb C11; sdAb C11; source: E. coli BL21(DE3), purified (NiNTA, TEV proteolysis, SEC); not shown: His6, N-terminal, cleaved"}}, "key": {"[1]": {"biological_target": "B7", "experiment": "ITC; 2 mM Stg peptide injected into 198 μM FLrArc-7A; 20 mM Tris-HCl pH 7.4, 150 mM NaCl; 1:1 binding model", "conditions": "both partners purified"}, "[2]": {"biological_target": "T1, human Arc C-terminal domain (hArc-CTD) (human, UniProt Q7LC44)", "T1 construct": "His tag with a linker holding a TEV site; kept in the pull-down; not shown: His6, N-terminal, kept", "experiment": "SEC-SAXS; hArc-CTD alone and with Nb, BM29 beamline (ESRF), HPLC mode", "conditions": "both partners purified"}, "[3]": {"biological_target": "the molecule itself", "experiment": "SEC-SAXS; MBP-2rNT alone, SWING beamline, HPLC mode"}, "[4]": {"biological_target": "FLrArc-7A, full-length rat Arc with residues 113-119 mutated to Ala (rat, UniProt Q63053, 113-119 MHVWREV to poly-Ala)"}, "[5]": {"biological_target": "the molecule itself", "experiment": "SEC-SAXS; FLrArc-7A alone and with Nb, SWING beamline, HPLC mode; 20 mM HEPES, 150 mM NaCl, 0.5 mM TCEP, pH 7.5 (rArc+H11 in 20 mM Tris, 150 mM NaCl, pH 7.4)"}, "[6]": {"biological_target": "the molecule itself", "experiment": "SEC; analytical SEC; 2 nmol FLhArc (capsid-containing) with 1.5-fold molar excess of Nb; Superdex 200 Increase 10/300 GL; PBS; fractions on SDS-PAGE"}, "[7]": {"biological_target": "rat Arc C-terminal domain as found in the crystals grown from FLrArc-7A (rArc-CTD) (rat, UniProt Q63053)"}}}
{"binder": "B1", "values": [{"measurement": "Kd", "setting": "[1]", "value": 34.9, "unit": "µM"}, {"measurement": "dH", "setting": "[1]", "value": -9.2, "unit": "kcal/mol"}, {"measurement": "stoichiometry N", "setting": "[1]", "value": 1.09}]}
{"binder": "B2", "values": [{"measurement": "stoichiometry N", "setting": "[2]", "value": 1}]}
{"binder": "B3", "values": [{"measurement": "stoichiometry N", "setting": "[3]", "value": 2}]}
{"binder": "B4", "values": [{"measurement": "stoichiometry N", "setting": "[2]", "value": 1}]}
{"binder": "B5", "values": [{"measurement": "binding result", "setting": "[4]", "value": "binds"}]}
{"binder": "B6", "values": [{"measurement": "stoichiometry N", "setting": "[2]", "value": 1}]}
{"binder": "B7", "values": [{"measurement": "stoichiometry N", "setting": "[5]", "value": 2}]}
{"binder": "B8", "values": [{"measurement": "stoichiometry N", "setting": "[2]", "value": 1}]}
{"binder": "B9", "values": [{"measurement": "stoichiometry N", "setting": "[2]", "value": 1}]}
{"binder": "B10", "values": [{"measurement": "binding result", "setting": "[6]", "value": "binds"}]}
{"binder": "B11", "values": [{"measurement": "binding result", "setting": "[7]", "value": "binds"}]}
{"binder": "B12", "values": [{"measurement": "stoichiometry N", "setting": "[2]", "value": 1}]}
